Laboratory results: article PMC3810306

Target: human CD47 IgSF domain (human)
Test: SPR

Substance | Kd [nM] | dissociation half-life (t1/2) [s]
high-affinity SIRPα variant CV1 (consensus variant 1) monomer (designed binder) | 0.0111 | 
wild-type human SIRPα allele 1 monomer (V-set Ig domain, domain 1) (domain or fragment) | 300 to 500 | 1.8
